Experimental data from patent publication US20120064078.

Molecular target: Thr90 phosphorylated Hsp90α (pT90-Hsp90α), recombinant human Hsp90α phosphorylated by recombinant protein kinase A

B1: recombinant human PP5 protein (protein phosphatase 5) (protein)
chain: MAMAEGERTECAEPPRDEPPADGALKRAEELKTQANDYFKAKDYENAIKFYSQAIELNPSNAIYYGNRSLAYLRTECYGYALGDATRAIELDKKYIKGYYRRAASNMALGKFRAALRDYETVVKVKPHDKDAKMKYQECNKIVKQKAFERAIAGDEHKRSVVDSLDIESMTIEDEYSGPKLEDGKVTISFMKELMQWYKDQKKLHRKCAYQILVQVKEVLSKLSTLVETTLKETEKITVCGDTHGQFYDLLNIFELNGLPSETNPYIFNGDFVDRGSFSVEVILTLFGFKLLYPDHFHLLRGNHETDNMNQIYGFEGEVKAKYTAQMYELFSEVFEWLPLAQCINGKVLIMHGGLFSEDGVTLDDIRKIERNRQPPDSGPMCDLLWSDPQPQNGRSISKRGVSCQFGPDVTKAFLEENNLDYIIRSHEVKAEGYEVAHGGRCVTVFSAPNYCDQMGNKASYIHLQGSDLRPQFHQFTAVPHPNVKPMAYANTLLQLGMM
- release of free phosphate (non-radioactive serine/threonine phosphatase assay): the release of free phosphate was also significantly increased, P value<0.005
